In patent publication US20260167721A1 (ABLEXIS, published 2026):
Where a chain is given by its changes, count along the chain named. Values belong to the binder of their own block, whether it stands above or below them.

How the values were obtained:
[1] = molecular target: T1, human CD3 (TCR/CD3 complex) on the cell surface (human, UniProt P07766 23-207; P09693 23-182; P04234 22-171; P20963 22-164); experiment: flow cytometry, Jurkat WT cells, 1 ug/mL
T1 construct: whole, on cells; also called CD3 on Pan-T cells; CD3 on Jurkat WT cells
T1 sequence (P07766 23-207, chain 1 of 4): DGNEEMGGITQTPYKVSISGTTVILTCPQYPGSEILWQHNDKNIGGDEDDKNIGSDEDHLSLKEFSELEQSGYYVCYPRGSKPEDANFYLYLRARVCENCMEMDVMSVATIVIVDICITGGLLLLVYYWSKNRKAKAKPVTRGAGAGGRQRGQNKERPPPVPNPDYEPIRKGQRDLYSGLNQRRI
T1 sequence (P09693 23-182, chain 2 of 4): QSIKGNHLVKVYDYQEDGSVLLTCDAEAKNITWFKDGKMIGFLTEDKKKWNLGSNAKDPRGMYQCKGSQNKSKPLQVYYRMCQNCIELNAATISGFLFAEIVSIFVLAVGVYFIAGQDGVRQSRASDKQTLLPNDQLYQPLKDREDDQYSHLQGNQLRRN
T1 sequence (P04234 22-171, chain 3 of 4): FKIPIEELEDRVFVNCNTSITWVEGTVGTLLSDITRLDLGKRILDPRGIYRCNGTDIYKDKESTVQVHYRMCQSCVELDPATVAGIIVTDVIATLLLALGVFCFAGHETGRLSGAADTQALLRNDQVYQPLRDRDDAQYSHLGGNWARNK
T1 sequence (P20963 22-164, chain 4 of 4): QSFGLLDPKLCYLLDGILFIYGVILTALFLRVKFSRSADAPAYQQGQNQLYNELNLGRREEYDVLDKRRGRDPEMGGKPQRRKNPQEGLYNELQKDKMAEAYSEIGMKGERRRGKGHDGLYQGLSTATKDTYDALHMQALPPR

[2] = molecular target: T1, human CD3 (TCR/CD3 complex) on the cell …; experiment: flow cytometry, Pan-T cells, 1 ug/mL
[3] = molecular target: T1, human CD3 (TCR/CD3 complex) on the cell …; experiment: flow cytometry, Pan-T cells, 10 ug/mL
[4] = molecular target: T1, human CD3 (TCR/CD3 complex) on the cell …; experiment: flow cytometry, gMFI Jurkat WT over Jurkat TCRb KO, 10 ug/mL
[5] = molecular target: T1, human CD3 (TCR/CD3 complex) on the cell …; experiment: flow cytometry, gMFI Jurkat WT over Jurkat TCRb KO, 1 ug/mL
[6] = molecular target: T1, human CD3 (TCR/CD3 complex) on the cell …; experiment: flow cytometry, Jurkat WT cells, 10 ug/mL
recombinant CD3 proteins [7] = molecular target: T2, recombinant CD3 proteins (UniProt P07766 23-126); experiment: Octet BLI, recombinant CD3; Full R^2 0.995
T2 construct: elsewhere it uses human CD3 E/D and E/G heterodimers
T2 sequence (P07766 23-126): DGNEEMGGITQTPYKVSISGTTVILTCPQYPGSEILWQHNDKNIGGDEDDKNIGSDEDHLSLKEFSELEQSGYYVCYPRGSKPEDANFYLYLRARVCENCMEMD

recombinant CD3 proteins [8] = molecular target: T2, recombinant CD3 proteins; experiment: Octet BLI, recombinant CD3; Full R^2 0.997
recombinant CD3 proteins [9] = molecular target: T2, recombinant CD3 proteins; experiment: Octet BLI, recombinant CD3; Full R^2 0.000*

gMFI [1]: 1650 gMFI
% Positive [2]: 1.2%
gMFI [2]: 1770 gMFI
% Positive [3]: 0.7%
gMFI [3]: 1680 gMFI
Jurkat WT/KO (Fold) [4]: 0.9 fold
Jurkat WT/KO (Fold) [5]: 0.9 fold
gMFI [6]: 1690 gMFI
B1: Gemtuzumab (antibody, V domains shown)
VH: EVQLVQSGAEVKKPGSSVKVSCKASGYTITDSNIHWVRQAPGQSLEWIGYIYPYNGGTDYNQKFKNRATLTVDNPTNTAYMELSSLRSEDTAFYYCVNGNPWLAYWGQGTLVTVSS
VL: DIQLTQSPSTLSASVGDRVTITCRASESLDNYGIRFLTWFQQKPGKAPKLLMYAASNQGSGVPSRFSGSGSGTEFTLTISSLQPDDFATYYCQQTKEVPWSFGQGTKVEVKR
notes: also called anti-CD33 control

gMFI [1]: 15700 gMFI
% Positive [2]: 98.3%
gMFI [2]: 56000 gMFI
% Positive [3]: 99.7%
gMFI [3]: 161000 gMFI
Jurkat WT/KO (Fold) [4]: 8.8 fold
Kd (recombinant CD3 proteins [7]): 78.4 nM
koff (recombinant CD3 proteins [7]): 0.0117 s⁻¹
kon (recombinant CD3 proteins [7]): 149000 M⁻¹ s⁻¹
Jurkat WT/KO (Fold) [5]: 5.3 fold
gMFI [6]: 26000 gMFI
B2: CD3 × CD33-BspAb126 (bispecific antibody)
chain 1: QVQLQESGPGLVKPSETLSLTCTVSGGSINSYYWSWIRQPAGKCLEWIGRIYTSGSTNYNPSLKSRVTMSVDTSKKQFSLKLSSVTAADTAVYYCARERISRLYFDYWGQGILVTVSSGGGGSGGGGSGGGGSGGGGSNFMLTQPHSVSESPGKTVTISCTRSSGSIASNYVQWYQQRPGSSPTTVIYEDNQRPSGVPDRFSGSIDSSSNSASLTISGLKTEDEADYYCQSYDRSNRVFGCGTKLTVLDKTHTCPPCPAPEFEGGPSVFLFPPKPKDTLMISRTPEVTCVVVDVSHEDPEVKFNWYVDGVEVHNAKTKPREEQYNSTYRVVSVLTVLHQDWLNGKEYKCKVSNKALPASIEKTISKAKGQPREPQVYTLPPCREEMTKNQVSLWCLVKGFYPSDIAVEWESNGQPENNYKTTPPVLDSDGSFFLYSKLTVDKSRWQQGNVFSCSVMHEALHNHYTQKSLSLSPGK
chain 2: EVQLVQSGAEVKKPGSSVKVSCKASGYTITDSNIHWVRQAPGQSLEWIGYIYPYNGGTDYNQKFKNRATLTVDNPTNTAYMELSSLRSEDTAFYYCVNGNPWLAYWGQGTLVTVSSASTKGPSVFPLAPSSKSTSGGTAALGCLVKDYFPEPVTVSWNSGALTSGVHTFPAVLQSSGLYSLSSVVTVPSSSLGTQTYICNVNHKPSNTKVDKRVEPKSCDKTHTCPPCPAPEFEGGPSVFLFPPKPKDTLMISRTPEVTCVVVDVSHEDPEVKFNWYVDGVEVHNAKTKPREEQYNSTYRVVSVLTVLHQDWLNGKEYKCKVSNKALPASIEKTISKAKGQPREPQVCTLPPSREEMTKNQVSLSCAVKGFYPSDIAVEWESNGQPENNYKTTPPVLDSDGSFFLVSKLTVDKSRWQQGNVFSCSVMHEALHNRFTQKSLSLSPGK
chain 3: DIQLTQSPSTLSASVGDRVTITCRASESLDNYGIRFLTWFQQKPGKAPKLLMYAASNQGSGVPSRFSGSGSGTEFTLTISSLQPDDFATYYCQQTKEVPWSFGQGTKVEVKRTVAAPSVFIFPPSDEQLKSGTASVVCLLNNFYPREAKVQWKVDNALQSGNSQESVTEQDSKDSTYSLSSTLTLSKADYEKHKVYACEVTHQGLSSPVTKSFNRGEC

Kd (recombinant CD3 proteins [8]): 163 nM
koff (recombinant CD3 proteins [8]): 0.0168 s⁻¹
kon (recombinant CD3 proteins [8]): 103000 M⁻¹ s⁻¹
B3: CD3 × CD33-BspAb116 (bispecific antibody)
chain 1: NFMLTQPHSVSESPGKTVTISCTRSSGSIASNYVQWYQQRPGSSPTTVIYEDNQRPSGVPDRFSGSIDSSSNSASLTISGLKTEDEAYYYCQSFDSSNRVFGCGTKLTVLGGGGSGGGGSGGGGSGGGGSQVQLQESGPGLVKPSQTLSLTCTVSGGSISSGGYYWSWIRQHPGKCLEWIGYIYYSGSTYYNPSLKSRVTISVDTSKDQFSLKLSSVTAADTAVYYCARERKTSLPFDIWGQGTMVTVSSDKTHTCPPCPAPEFEGGPSVFLFPPKPKDTLMISRTPEVTCVVVDVSHEDPEVKFNWYVDGVEVHNAKTKPREEQYNSTYRVVSVLTVLHQDWLNGKEYKCKVSNKALPASIEKTISKAKGQPREPQVYTLPPCREEMTKNQVSLWCLVKGFYPSDIAVEWESNGQPENNYKTTPPVLDSDGSFFLYSKLTVDKSRWQQGNVFSCSVMHEALHNHYTQKSLSLSPGK
chain 2: B2 chain 2
chain 3: B2 chain 3

Kd (recombinant CD3 proteins [8]): 456 nM
koff (recombinant CD3 proteins [8]): 0.0829 s⁻¹
kon (recombinant CD3 proteins [8]): 182000 M⁻¹ s⁻¹
B4: CD3 × CD33-BspAb79 (bispecific antibody)
chain 1: B2 chain 1 with N30S, T53A, N58Y, K76N, R99K, I100R, I112T, A225G
chain 2: B2 chain 2
chain 3: B2 chain 3

gMFI [1]: 57500 gMFI
% Positive [2]: 99.5%
gMFI [2]: 475000 gMFI
% Positive [3]: 99.5%
gMFI [3]: 508000 gMFI
Jurkat WT/KO (Fold) [4]: 12.9 fold
Jurkat WT/KO (Fold) [5]: 13.1 fold
gMFI [6]: 54200 gMFI
B5: CD3 × CD33-BspAb44 (bispecific antibody)
chain 1: EVQLVESGGGLVKPGGSLRLSCAASGFTFSRYSMNWVRQAPGKCLKWVSSISSSGSYKYYADSVKGRFTISRDNAKNSLYLQMNSLRAEDTAVYYCAREPPTLGMDYWGQGTLVTVSSGGGGSGGGGSGGGGSGGGGSNFMLTQPHSVSESPGKTVTISCTRSSGSIASNYVQWYQQRPGSSPTTVIYEDNQRPSGVPDRFSGSIDSSSNSASLTISGLKTEDEADYYCQSFDNSNRVFGCGTKLTVLDKTHTCPPCPAPEFEGGPSVFLFPPKPKDTLMISRTPEVTCVVVDVSHEDPEVKFNWYVDGVEVHNAKTKPREEQYNSTYRVVSVLTVLHQDWLNGKEYKCKVSNKALPASIEKTISKAKGQPREPQVYTLPPCREEMTKNQVSLWCLVKGFYPSDIAVEWESNGQPENNYKTTPPVLDSDGSFFLYSKLTVDKSRWQQGNVFSCSVMHEALHNHYTQKSLSLSPGK
chain 2: B2 chain 2
chain 3: B2 chain 3

gMFI [1]: 2260 gMFI
% Positive [2]: 3.4%
gMFI [2]: 2870 gMFI
% Positive [3]: 82.2%
gMFI [3]: 12200 gMFI
Jurkat WT/KO (Fold) [4]: 2.5 fold
Jurkat WT/KO (Fold) [5]: 1.1 fold
gMFI [6]: 5170 gMFI
B6: CD3 × CD33-BspAb48 (bispecific antibody)
chain 1: QVTLKESGPGILQPSQTLSLTCSFSGFSLSTFGMGVGWIRQPSGKCLEWLAHIWWDDDKYYNPALKSRLTISKDTSKNQVFLKIANVDTADTATYYCARLGYYPYWFFDVWGTGTTVTVSSGGGGSGGGGSGGGGSGGGGSNFMLTQPHSVSESPGKTVTIACTRSSGSIASNYVQWYQQRPGSSPTTVIYEDNQRPSGVPDRFSGSIDSSSNSASLTISGLKTEDEADYYCQSYDSSNQVFGCGTKLTVLDKTHTCPPCPAPEFEGGPSVFLFPPKPKDTLMISRTPEVTCVVVDVSHEDPEVKFNWYVDGVEVHNAKTKPREEQYNSTYRVVSVLTVLHQDWLNGKEYKCKVSNKALPASIEKTISKAKGQPREPQVYTLPPCREEMTKNQVSLWCLVKGFYPSDIAVEWESNGQPENNYKTTPPVLDSDGSFFLYSKLTVDKSRWQQGNVFSCSVMHEALHNHYTQKSLSLSPGK
chain 2: B2 chain 2
chain 3: B2 chain 3

Kd (recombinant CD3 proteins [9]): < 0.001 nM
koff (recombinant CD3 proteins [9]): < 1e-07 s⁻¹
kon (recombinant CD3 proteins [9]): 12500 M⁻¹ s⁻¹
B7: CD3 × CD33-BspAb124 (bispecific antibody)
chain 1: not shown
chain 2: B2 chain 2
chain 3: B2 chain 3
